Experimental data from the nanobody polyreactivity screen of Harvey et al. (2022).

Assay: yeast display, Sf9 membrane polyspecificity reagent, FACS + sequencing; frameworks hold sequencing errors
How it was run: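 Nanobodies from a synthetic yeast display library (Saccharomyces cerevisiae BJ5465), induced 36–48 hours with galactose, were stained 1 hour at 4 °C with 10% biotinylated, detergent-solubilized Sf9 membrane reagent, enriched on streptavidin microbeads, then FACS-sorted. Anti-HA (expression) and streptavidin (reagent binding) fluorescence set low and high (top ~1%) gates. Polyreactivity labels come from the gate of origin. Genes were colony-PCR amplified, MiSeq 2 × 250 sequenced and filtered by CDR length.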

Row | Sequence | polyreactivity (PSR sort gate)
1 | QVQLVESGGGLVQAGGSLRLSCAASGFIFGYYAMGWYRQAPGKERELVAAISSRGGSTYYADSVKGRFTISRDNAKNTVYLQMNSLKPEDTAVYYCAVRRVSFRHKFGQYDYWGQGTQVTVSA | high polyreactivity
2 | QVQLVESGGGLVQAGGSLRLSCAASGFIFGYYAMGWYRQAPGKERELVAAISTRGSTYYADSVKGRFTISRDNAKYTVYLQMNSLKPEDTAVYYCNAGWGYRRDYWGQGTQVTVSS | high polyreactivity
3 | QVQLVESGGGLVQAGGSLRLSCAASGFIFGYYAMGWYRQAPGKERELVAAISWNGGSTYYADSVKGRFTISRDNAKNTVYLQMNSLKPEDTAVYYCAADGYETYYDYDYWGQGTQVTVSS | high polyreactivity
4 | QVQLVESGGGLVQAGGSLRLSCAASGFIFGYYAMGWYRQAPGKERELVAAISYSGGSTYYADSVKGRFTISRDNAKNTVYLQMNSLKPEDTAVYYCAKYGQSNYDWGQGTQVTVSS | high polyreactivity
5 | QVQLVESGGGLVQAGGSLRLSCAASGFIFGYYAMGWYRQAPGKERELVAAITTSAASTYYADSVKGRFTISRDNAKNTVYLQMNSLKPEDTAVYYCNAVLYKVSISEYDYWGQGTQVTVSS | high polyreactivity
6 | QVQLVESGGGLVQAGGSLRLSCAASGFIFGYYGMGWYRQAPGKERELVAAITDGGSTTYADSVKGRFTISRDNAKNTVYLQMNSLKPEDTAVYYCNAEAGGFDYYGKTYRYGDYWGQGTQVTVSS | low polyreactivity
7 | QVQLVESGGGLVQAGGSLRLSCAASGFIFHGYAMGWYRQAPGKERELVAAISGTGGSTYYADSVKGRFTISRDNAKNTVYLQMNSLKPEDTAVYYYKAERSGNGYWGQGTQVTVSS | high polyreactivity
8 | QVQLVESGGGLVQAGGSLRLSCAASGFIFHLNAMGWYRQAPGKERELVAAIRSSGGSTYYADSVKGRFTISRDIAKNTVYFQMISMKREDTAVYYCAARGSSGLTRRGYYWGQGTQVNVSS | high polyreactivity
9 | QVQLVESGGGLVQAGGSLRLSCAASGFIFHLYGMGWYRQATGKERELVAAISSGGRTYYADSVKGRFTISRDNAKNTVYLQMNSLKPEDTAVYYCAVYVAYLYSYYYWGQGTQVTVSS | low polyreactivity
10 | QVQLVESGGGLVQAGGSLRLSCAASGFIFHRNAMGWYRPAPGKERELVASITKRGGNTYYADSVKGRFTISRDNAKNTVYLQMNSLKPEDTAVYYCATQLWGWDWKRDYWGQGTQVTVSS | high polyreactivity
11 | QVQLVESGGGLVQAGGSLRLSCAASGFIFHYYAMGRYRQAPGKERELVAAISWNGGSTNYSDSVKGRFTISRDNAKNTVYLQMNSLKPEDTAVYYCATTDPYYDVDYWGQGTQVTVSS | low polyreactivity
12 | QVQLVESGGGLVQAGGSLRLSCAASGFIFIGNTMGWYRQAPGKDRELVAAIRWSGGSTYYADSVKGRFTISRDNAKNTVYLQMNSLKPEDTAVYYCAARRWSKTRYYYWGQGTQVTVSS | high polyreactivity
13 | QVQLVESGGGLVQAGGSLRLSCAASGFIFIHYAMGWYRQAPGKERELVAAINRRGSRTYYADSVKGRFTISRDNAKNTVYLQMNSLKPEDSAVYYCAAGSRTEYDYWGQGSQVTVSS | high polyreactivity
14 | QVQLVESGGGLVQAGGSLRLSCAASGFIFIKYAMGWYRQAPGKERELVAAISSSGGSTYYADSVKGRFTISRDNAKNTVYLQMNSLKPEDTAVYYCAARTYRGLAYDYWGQGTQVTVSS | high polyreactivity
15 | QVQLVESGGGLVQAGGSLRLSCAASGFIFIPYAKGWYRQAPGKERELVAAISVSDGTTYYADSVKGRFTISRDNAKNTVYFQMNSLKPEDTAVDYCAARRRAQQGTRDHDYWGQGTQVTVSS | high polyreactivity
16 | QVQLVESGGGLVQAGGSLRLSCAASGFIFIRNAMGWYRQAPGKQRELVATIRYSGGNTYYADSVKGRFTISRDNAKNTVYLQMNSLNPEDTAVYYCAAGSGYWGRSPTRCGQGGYWGQGTQVTVSS | high polyreactivity
17 | QVQLVESGGGLVQAGGSLRLSCAASGFIFIYDMGWYRQAPGKERELVAAITSSDGSTYYADSVKGRFTISRDNAKNTVYLQMNSLKPEDTAVYYCNAKYPWGNYNSVSYDYWGQGTQVTVSS | high polyreactivity
18 | QVQLVESGGGLVQAGGSLRLSCAASGFIFKGYAMGWYRQAPGKERELVATINWSGGRTYYADSVKGRFTISRDNAKNTVYLQMNSLKPEDTAVYYCNVQVGTYAWWYRVGSWYDYWGQGTQVTVSS | high polyreactivity
19 | QVQLVESGGGLVQAGGSLRLSCAASGFIFKHYAMGWYRQAPGKERELVAAITSSGGNTYYADSVKGRFTISRDNAKNTVYLQMNSLKPEDTAVYYCNARFRTLYWGQGTQVTVSS | high polyreactivity
20 | QVQLVESGGGLVQAGGSLRLSCAASGFIFKLNAMGWYRQAPGKERELVATITRGGDTKYADSVKGRFTISRDNAKNTVYLQMNSLKPEDTAVYYCAAGYPYSYRDYYYWGQGTQVTVSS | high polyreactivity
21 | QVQLVESGGGLVQAGGSLRLSCAASGFIFKQYAMGWYRQAPGKERELVAAISWTGGSTYYADSVKGRFTISRDNAKNTVYLQMNSLKPEDTAVYYCAAKRRTRQSYYTEYYWGQGTQVTVSS | high polyreactivity

Row | Sequence | polyreactivity (PSR sort gate)
22 | QVQLVESGGGLVQAGGSLRLSCAASGFIFKRYAMGWYRQAPGKERELVAPITSNGGRTYYADSVKGRFTISRDNAKNTVYLQMNSLKPEHTAVYYCARDSQYYEQDDYWGQGTQVTVSS | high polyreactivity
23 | QVQLVESGGGLVQAGGSLRLSCAASGFIFKRYAMGWYRQAPGKVRELGAAITGSGGSTYYADSVKGRFTISRDNAKNTVYLQMNSLKPEDTAVYYCARGNGGSLDYWGQGTQVTVSS | high polyreactivity
24 | QVQLVESGGGLVQAGGSLRLSCAASGFIFKSNGMGRYRPEPGKERELVSAIRRSGGSTYYADSVKGRFSISRDYAKNTFYLQMNSLKPEVTAVYYCGIRRGVYTHWYDYWGQGTQVTVSS | high polyreactivity
25 | QVQLVESGGGLVQAGGSLRLSCAASGFIFKWYAMGWYRQAPGKERELVAAISTSGGSTYYADSVKGRFTISRDNAKNTVYLQMNSLKPEDTAVYYCAVLVGRLVWSYNHWGQGTQVTVSS | high polyreactivity
26 | QVQLVESGGGLVQAGGSLRLSCAASGFIFKYYAMGWYRQAPGKERELVASISSYGSSTYYADSVKGRFTSSRDSAKNTVYLQLNSVKPEDTAVYYCAAPYNFWNFFDLIYVWDGYDYWGQGTQVTVSS | low polyreactivity
27 | QVQLVESGGGLVQAGGSLRLSCAASGFIFLFNAMGWYRQAPGNESELVAAIYDDGSTYYADSVKGRFTLSLDNAKNTVYLHMNSVKPEDTAVYYCAAPRRGRWIRGYLGQGTQVTVSS | high polyreactivity
28 | QVQLVESGGGLVQAGGSLRLSCAASGFIFLGNVMGWYRQAPGKERELVAAINWSDGSTYYADSVKGRFTISRDNAKNTVYLQMNSLKPEDTAVYYCNVDAGVEGGTVDYWGQGTQVTVSS | low polyreactivity
29 | QVQLVESGGGLVQAGGSLRLSCAASGFIFLGYAMGWYRQAPGKERELVAAISSDSDTNYADSVKGRFTISRDNAKNTVFLQMNSLKPEDTAVYYCNADIDSYREMDYWGQGTLVTVSS | low polyreactivity
30 | QVQLVESGGGLVQAGGSLRLSCAASGFIFLKYAMGWYRQAPGKERELVASITSTGGSTYYADSVKGRFTISRDNAKNTVYLQMNSQKPEDTAVYYCARDTVPSSDPWYYAWGGFEFDYWGQGTQVTVSS | low polyreactivity
31 | QVQLVESGGGLVQAGGSLRLSCAASGFIFLNYAMGWYRQAPGKERELVAAITSGGNTTYADSVKGRFTISRDNAKNTVYLQMNSLKPEDTAVYYCAADGWRAGPGDYWGQGTQVIVSS | low polyreactivity
32 | QVQLVESGGGLVQAGGSLRLSCAASGFIFLPYAMGWYRQAPGKERELVAAITRGGRTYYADSVKGRFTISRDNAKNTVYLQMNSLKPEDTAVYYCAATTYLVWGYNYWGQGTQVTVSS | low polyreactivity
33 | QVQLVESGGGLVQAGGSLRLSCAASGFIFLQYVMGWYRQAPGKERELVAAITSGGSTYYADSVKGRFTISRDNAKNTVYLQMNSLKPEDTAVYFCATDVADNTFYALYGYDYWGQGTQVTVSS | low polyreactivity
34 | QVQLVESGGGLVQAGGSLRLSCAASGFIFLRYGMGWYRQAPGKERELVASIDSTGGSTYADSVKGRFTISRDNAKNTVYLQMNSLKPEDTAVYYCAAAYYIVSQRDYWGQGTQVTVSS | low polyreactivity
35 | QVQLVESGGGLVQAGGSLRLSCAASGFIFLSYAMGWYRPAPGKERELVAAISGRGGSTYYADSVKGRFTISRDNAKNTVYLQMNSLKPEDTAVYYCAARLYRYNYDYWGQGTQVTVSS | high polyreactivity
36 | QVQLVESGGGLVQAGGSLRLSCAASGFIFLVNAMGWYRGAPGKERELVAAISKSTGGTYYADSVKGRFTISRDNAKNTVYLQMNSLKPEDTAVYYCAADEVYPVQRDMDYWGQGTQVTVSS | low polyreactivity
37 | QVQLVESGGGLVQAGGSLRLSCAASGFIFLYNVMGWYRQAPGKERELVAAISWRGGTYYAHSVKGRFTISRDNAKNTVYLQMNSLKPEDTAVYYCAKKQRYYGRMDYWGQGTQVTVSS | high polyreactivity
38 | QVQLVESGGGLVQAGGSLRLSCAASGFIFLYYAMGWYRQAPGKERELVAAISNGGSTYYADSVKGRFTISRDNAKNTVYLQMNSLKPEDTAVYYCAARYGYRYTLKYGYWGQGTQVTVSS | high polyreactivity
39 | QVQLVESGGGLVQAGGSLRLSCAASGFIFNAYTMGWYRKAPGKERELFAAISRRGSSTYYADSVKGRFTISRDNAMNTVYLQMNSLKPEDTAVYYCNTRLYARDDSDFDYWGQGPQVTVSS | high polyreactivity
40 | QVQLVESGGGLVQAGGSLRLSCAASGFIFNIYAMGWYRQAPGKERELVAAITFSGGSTYYADSVKGRFTISRDNAKNTVYLQMNSLKPEDTAVYYCAADYLSEYTTYDYWGQGTQVTVSS | low polyreactivity
41 | QVQLVESGGGLVQAGGSLRLSCAASGFIFNRYAMGWYRQAPGKERELVAAISFSGGSTYYADSVKGRFTISRDNAKNTVYLQMNSLKPEDTAVYYCAASWYRYGYWGQGTQVTVSS | high polyreactivity
